Consider five molecules from patent US20160369011A1 (EISAI R AND D MANAGEMENT, published 2016).

Usually Kd stands for a measure of binding affinity in units of concentration. A higher Kd goes with a looser complex. Broadly, the koff is the rate constant with which the complex falls apart. Broadly, the kon is the second-order rate constant of association. Read a high kon as faster complex formation.

Experiment [1] addresses T1, human CA9 (carbonic anhydrase IX) (human, UniProt Q16790 38-414). Nature of the experiment: BIAcore T100, mAb captured on anti-human IgG, antigen as analyte, 1:1 model; mAb purified by the decapping method (Decapped). As to the method: (§1) Antibody concentrations were adjusted to generate 30-40 RU signal when bound to the antigen. […] The sensor surface was washed by injecting HBS-P buffer for 1 min at a flow rate of 50 μL/min. To record the antigen association to the captured mAb, a series of increasing concentrations of antigen was injected for 60 sec at a flow rate of 50 μL/min. The dissociation of antigen was monitored for 30 min at the same flow rate. The sensor surface was regenerated by injecting 3 M MgCl₂ for 1 min and then 30 sec at a flow rate of 30 μL/min. Sensograms were analyzed with Biacore T100 Evaluation Software using a 1:1 Langmuir binding model.
(§2) xi155D5 and the humanized variants were purified by standard protein A chromatography or the decapping method, and their affinity was analyzed using BIAcore (Table 13).
For orientation: SPR reads the build-up and loss of mass on a sensor chip optically.

Experiment [2] has as its target T1, human CA9 (carbonic anhydrase IX). Briefly: BIAcore T100, mAb captured on anti-human IgG, antigen as analyte, 1:1 model; mAb purified by protein A (ProA). As to the method:
as §1, §2

The target is the same in experiment [3]. Nature of the experiment: BIAcore, summary of Table 13; reference xi155D5; told of the group of humanized variants. The protocol:
as §1, §2

B1: zu155D5-4 (antibody, human IgG1, kappa)
heavy: not shown
light: DIQMTQSPSTLSASVGDRVTITCQASQSISSYLAWYQQKPGKAPKLLIYYASTLASGVPSRFSGSGSGTEFTLTITGVQCDDAATYYCLGVYGYSFDDGIAFGGGTKVEIKRTVAAPSVFIFPPSDEQLKSGTASVVCLLNNFYPREAKVQWKVDNALQSGNSQESVTEQDSKDSTYSLSSTLTLSKADYEKHKVYACEVTHQGLSSPVTKSFNRGEC
notes: Humanized 155D5, human IgG1 kappa; Tested both protein A purified and decapped
In experiment [1], B1 returned a Kd of 0.59 nM, a koff of 0.000378 s⁻¹ and a kon of 641000 M⁻¹ s⁻¹. In experiment [2], this molecule yielded a Kd of 0.664 nM, a koff of 0.000382 s⁻¹ and a kon of 577000 M⁻¹ s⁻¹. Further, the “fold difference in KD against chimeric xi155D5” value (from here on “fold difference in KD”) in experiment [3] is less than 2 fold.

B2: zu155D5-5 (antibody, human IgG1, kappa, V domains shown)
VH: QVQLVESGGGLVQPGGSLRLSCSASGFSLNSYAMIWVRQAPGKGLEYIGFITTGGTTYYADSVKGRFTISRDNSKNTLYLQMNSLRAEDTAVYYCARDRVKSYDDYGDLDAFEPWGQGTLVTVSS
VL: DIQMTQSPSTLSASVGDRVTITCQASQSISSYLAWYQQKPGKAPKLLIYYASTLASGVPSRFKGSGSGTEFTLTITGVQCDDAATYYCLGVYGYSFDDGIAFGGGTKVEIKR
notes: as for B1
In experiment [1], B2 gave a Kd of 0.478 nM, a koff of 0.000273 s⁻¹ and a kon of 572000 M⁻¹ s⁻¹. In experiment [2], this molecule had a Kd of 0.639 nM, a koff of 0.000373 s⁻¹ and a kon of 587000 M⁻¹ s⁻¹. Besides, in experiment [3], the “fold difference in KD” value was less than 2 fold.

B3: zu155D5-1 (antibody, human IgG1, kappa, V domains shown)
VH: QVQLVESGGGLVQPGGSLRLSCSASGFSLNSYAMIWVRQAPGKGLEYIGFITTGGTTYYADSVKGRFTISRDNSKNTLYLQMNSLRAEDTAVYYCARDRVKSYDDYGDLDAFEPWGQGTLVTVSS
VL: DIQMTQSPSTLSASVGDRVTITCQASQSISSYLAWYQQKPGKAPKLLIYYASTLASGVPSRFSGSGSGTEFTLTISSLQCDDFATYYCLGVYGYSFDDGIAFGGGTKVEIKR
notes: Humanized 155D5, human IgG1 kappa; Tested both protein A purified (Cys80 capped) and decapped; also called zu155D5-CXXF; zu155D5-1 (huVK1-5)
In experiment [1], B3 returned a Kd of 0.5 nM, a koff of 0.000355 s⁻¹ and a kon of 770000 M⁻¹ s⁻¹. In experiment [2], this molecule showed a Kd of 0.498 nM, a koff of 0.000495 s⁻¹ and a kon of 1.01e+06 M⁻¹ s⁻¹. Moreover, the “fold difference in KD” value in experiment [3] was less than 2 fold.

B4: zu155D5-3 (antibody, human IgG1, kappa, V domains shown)
VH: QVQLVESGGGLVQPGGSLRLSCSASGFSLNSYAMIWVRQAPGKGLEYIGFITTGGTTYYADSVKGRFTISRDNSKNTLYLQMNSLRAEDTAVYYCARDRVKSYDDYGDLDAFEPWGQGTLVTVSS
VL: DIQMTQSPSTLSASVGDRVTITCQASQSISSYLAWYQQKPGKAPKLLIYYASTLASGVPSRFSGSGSGTEFTLTISSLQCDDAATYYCLGVYGYSFDDGIAFGGGTKVEIKR
notes: Humanized 155D5, human IgG1 kappa; Tested both protein A purified and decapped; also called zu155D5-CXXA
As for B4, in experiment [1], binding was characterised by a dissociation constant (Kd) of 0.507 nM, the koff worked out at 0.000351 s⁻¹ and the kon stood at 726000 M⁻¹ s⁻¹. Moreover, in experiment [2], the Kd was 0.562 nM, the koff is 0.000401 s⁻¹ and the kon amounted to 727000 M⁻¹ s⁻¹. In addition, the “fold difference in KD” value in experiment [3] was less than 2 fold.

B5: zu155D5-2 (antibody, human IgG1, kappa, V domains shown)
VH: QVQLVESGGGLVQPGGSLRLSCSASGFSLNSYAMIWVRQAPGKGLEYIGFITTGGTTYYADSVKGRFTISRDNSKNTLYLQMNSLRAEDTAVYYCARDRVKSYDDYGDLDAFEPWGQGTLVTVSS
VL: DIQMTQSPSTLSASVGDRVTITCQASQSISSYLAWYQQKPGKAPKLLIYYASTLASGVPSRFSGSGSGTEFTLTITGVQCDDFATYYCLGVYGYSFDDGIAFGGGTKVEIKR
notes: as for B1
For the molecule B5, in experiment [1], the Kd is 0.589 nM, the koff was 0.00027 s⁻¹ and the kon came out at 458000 M⁻¹ s⁻¹. In experiment [2], the Kd turned out to be 0.569 nM, the koff is 0.000376 s⁻¹ and the kon was 663000 M⁻¹ s⁻¹. The “fold difference in KD” value in experiment [3] is less than 2 fold.
